From paper PMC8980801 (2022) come the findings set out here.

For test [1], the target named is FLAG-Fzd4-3C-sGFP1–10-PDZ (mouse | not stated) (UniProt Q61088). Kind of test: SEC; FLAG-Fzd4-sGFP1–10 and FLAG-Fzd4-sGFP11 coexpressed in Sf9, solubilised in DDM, M1 anti-FLAG eluate on Superose 6 to separate dimers from monomers; total protein compared with GFP fluorescence.
In test [2] the target is T1, Fzd4 homodimer in biotinylated nanodiscs (mouse, UniProt Q61088 42-537).
T1 chain: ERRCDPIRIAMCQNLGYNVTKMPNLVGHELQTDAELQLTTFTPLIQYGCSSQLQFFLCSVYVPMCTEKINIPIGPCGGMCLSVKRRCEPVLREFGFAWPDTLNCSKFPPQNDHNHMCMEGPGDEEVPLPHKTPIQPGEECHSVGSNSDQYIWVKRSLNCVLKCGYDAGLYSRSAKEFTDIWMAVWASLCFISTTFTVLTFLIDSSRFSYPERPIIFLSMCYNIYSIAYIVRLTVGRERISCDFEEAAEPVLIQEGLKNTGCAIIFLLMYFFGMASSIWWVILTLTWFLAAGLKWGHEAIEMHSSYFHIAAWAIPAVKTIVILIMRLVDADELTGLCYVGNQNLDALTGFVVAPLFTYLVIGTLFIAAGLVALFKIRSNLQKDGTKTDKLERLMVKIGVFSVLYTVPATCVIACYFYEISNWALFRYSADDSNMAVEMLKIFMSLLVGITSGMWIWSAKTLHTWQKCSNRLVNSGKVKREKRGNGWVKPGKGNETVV
Kind of test: BLI; biotinylated nanodiscs on streptavidin biosensors, 0-10 nM MBP–Norrin, 3 h association, 25 °C, 20 mM Hepes pH 7.4, 150 mM NaCl, 1 mM EDTA, 1 mg/ml BSA; steady state. Background: BLI is a label-free optical method that tracks binding on a fibre tip over time.

Test [3] deals with T1, Fzd4 homodimer in biotinylated nanodiscs. Kind of test: BLI.
The target in test [4] is Fzd4–LRP6 heterodimer in biotinylated nanodiscs (mouse | human) (UniProt Q61088). Kind of test: BLI; biotinylated nanodiscs on streptavidin biosensors, 0-100 nM DKK1, empty discs subtracted, 25 °C, 20 mM Hepes pH 7.4, 150 mM NaCl, 1 mM EDTA, 1 mg/ml BSA; steady state.
Test [5] has as its target T2, LRP6 monomer in biotinylated nanodiscs (human, UniProt O75581 20-1439).
T2 chain: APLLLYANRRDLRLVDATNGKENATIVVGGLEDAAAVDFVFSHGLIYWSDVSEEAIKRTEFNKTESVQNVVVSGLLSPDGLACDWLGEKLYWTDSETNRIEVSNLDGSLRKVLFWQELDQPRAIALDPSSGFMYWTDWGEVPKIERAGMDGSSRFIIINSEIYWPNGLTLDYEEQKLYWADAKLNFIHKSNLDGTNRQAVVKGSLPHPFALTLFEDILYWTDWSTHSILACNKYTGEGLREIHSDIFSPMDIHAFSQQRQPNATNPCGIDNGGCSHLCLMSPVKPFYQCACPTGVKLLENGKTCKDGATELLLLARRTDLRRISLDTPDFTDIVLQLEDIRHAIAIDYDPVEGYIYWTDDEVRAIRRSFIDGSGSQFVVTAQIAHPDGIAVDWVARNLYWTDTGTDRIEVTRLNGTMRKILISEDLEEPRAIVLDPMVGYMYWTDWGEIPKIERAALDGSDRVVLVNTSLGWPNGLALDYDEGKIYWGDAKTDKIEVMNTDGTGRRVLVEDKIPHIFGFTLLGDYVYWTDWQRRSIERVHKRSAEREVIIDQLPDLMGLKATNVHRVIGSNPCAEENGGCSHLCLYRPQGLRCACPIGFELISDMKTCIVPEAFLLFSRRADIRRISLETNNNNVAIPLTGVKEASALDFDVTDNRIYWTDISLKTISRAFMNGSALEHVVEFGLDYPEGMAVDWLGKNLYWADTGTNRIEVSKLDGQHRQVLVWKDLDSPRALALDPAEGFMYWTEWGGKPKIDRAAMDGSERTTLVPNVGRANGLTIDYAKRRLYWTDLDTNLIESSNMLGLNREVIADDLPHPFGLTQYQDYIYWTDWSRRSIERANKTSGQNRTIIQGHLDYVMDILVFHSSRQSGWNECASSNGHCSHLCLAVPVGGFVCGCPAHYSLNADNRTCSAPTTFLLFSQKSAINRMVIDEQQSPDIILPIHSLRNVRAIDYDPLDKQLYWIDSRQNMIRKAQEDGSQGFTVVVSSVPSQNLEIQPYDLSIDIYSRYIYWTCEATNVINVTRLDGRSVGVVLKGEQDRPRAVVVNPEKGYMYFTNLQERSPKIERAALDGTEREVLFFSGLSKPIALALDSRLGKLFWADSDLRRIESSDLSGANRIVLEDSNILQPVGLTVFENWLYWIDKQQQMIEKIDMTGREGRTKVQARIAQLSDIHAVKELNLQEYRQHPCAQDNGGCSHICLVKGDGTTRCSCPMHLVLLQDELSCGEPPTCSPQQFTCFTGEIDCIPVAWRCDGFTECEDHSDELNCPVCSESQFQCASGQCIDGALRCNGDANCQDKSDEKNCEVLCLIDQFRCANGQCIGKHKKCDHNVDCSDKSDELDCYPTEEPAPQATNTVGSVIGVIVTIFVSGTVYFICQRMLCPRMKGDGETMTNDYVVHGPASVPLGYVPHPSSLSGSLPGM
Briefly: BLI; kinetic.

Test [6] concerns the target T2, LRP6 monomer in biotinylated nanodiscs. Kind of test: BLI.
The target in test [7] is T3, Fzd4–LRP6 heterodimer in biotinylated nanodiscs (mouse | human, UniProt Q61088 42-537; O75581 20-1439).
T3 chain 1: T1 chain
T3 chain 2: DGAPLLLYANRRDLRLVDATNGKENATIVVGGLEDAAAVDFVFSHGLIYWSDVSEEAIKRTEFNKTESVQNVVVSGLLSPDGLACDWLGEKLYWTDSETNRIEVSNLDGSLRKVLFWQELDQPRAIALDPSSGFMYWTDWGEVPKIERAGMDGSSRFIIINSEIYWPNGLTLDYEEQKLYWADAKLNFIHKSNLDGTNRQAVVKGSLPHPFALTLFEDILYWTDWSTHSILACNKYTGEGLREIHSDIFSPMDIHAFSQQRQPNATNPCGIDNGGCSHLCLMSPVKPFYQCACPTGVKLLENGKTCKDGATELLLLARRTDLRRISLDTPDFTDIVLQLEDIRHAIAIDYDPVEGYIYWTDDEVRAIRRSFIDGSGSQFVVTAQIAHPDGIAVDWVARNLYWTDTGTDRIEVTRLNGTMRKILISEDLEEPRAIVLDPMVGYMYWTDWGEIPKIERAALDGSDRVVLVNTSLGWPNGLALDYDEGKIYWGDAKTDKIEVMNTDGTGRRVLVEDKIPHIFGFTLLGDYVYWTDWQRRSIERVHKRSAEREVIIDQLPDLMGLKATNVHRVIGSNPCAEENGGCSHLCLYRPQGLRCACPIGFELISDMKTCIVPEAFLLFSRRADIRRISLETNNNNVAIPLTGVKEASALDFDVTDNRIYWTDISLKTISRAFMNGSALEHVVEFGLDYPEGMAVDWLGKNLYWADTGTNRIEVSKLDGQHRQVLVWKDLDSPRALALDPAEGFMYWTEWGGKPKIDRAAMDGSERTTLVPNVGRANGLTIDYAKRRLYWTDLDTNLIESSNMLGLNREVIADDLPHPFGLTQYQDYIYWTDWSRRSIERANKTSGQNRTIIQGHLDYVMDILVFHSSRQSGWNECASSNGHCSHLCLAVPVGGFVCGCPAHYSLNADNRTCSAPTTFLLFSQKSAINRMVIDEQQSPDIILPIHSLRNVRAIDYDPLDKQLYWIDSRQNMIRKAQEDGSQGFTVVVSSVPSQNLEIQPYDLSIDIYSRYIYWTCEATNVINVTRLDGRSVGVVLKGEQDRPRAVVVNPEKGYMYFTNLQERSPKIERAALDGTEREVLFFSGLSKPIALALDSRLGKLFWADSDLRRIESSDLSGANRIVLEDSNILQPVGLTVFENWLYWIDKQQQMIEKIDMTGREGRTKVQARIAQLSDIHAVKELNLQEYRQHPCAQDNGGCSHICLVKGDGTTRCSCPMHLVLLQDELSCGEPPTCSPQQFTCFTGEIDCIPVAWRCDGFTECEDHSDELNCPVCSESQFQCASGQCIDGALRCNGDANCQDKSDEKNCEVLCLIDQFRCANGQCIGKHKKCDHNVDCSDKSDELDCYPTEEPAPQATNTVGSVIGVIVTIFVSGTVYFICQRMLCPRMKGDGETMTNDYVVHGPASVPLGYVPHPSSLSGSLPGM
Briefly: BLI.

Test [8] deals with T3, Fzd4–LRP6 heterodimer in biotinylated …. Briefly: BLI; without Norrin.
For test [9] the target is unchanged. Kind of test: BLI; kinetic, without Norrin.
Test [10] concerns the target Fzd4–LRP6 heterodimer in biotinylated nanodiscs, prebound to Norrin (mouse | human | not stated) (UniProt Q61088). Briefly: BLI; nanodiscs with 5% PIP2 on SMAP biosensors, 0.01 to 32 μM DEP, empty nanodiscs subtracted, 25 °C, 20 mM Hepes pH 7.4, 150 mM NaCl, 1 mM EDTA, 1 mg/ml BSA; steady state.
The target in test [11] is Fzd4–LRP6 heterodimer in biotinylated nanodiscs (mouse | human) (UniProt Q61088). The description is as above.
Test [12] addresses T4, Fzd4–LRP6 heterodimer in biotinylated nanodiscs, prebound to Norrin (mouse | human | , UniProt Q61088 42-537; O75581 20-1439; Q00604 33-133). Briefly: BLI.
The target in test [13] is T4, Fzd4–LRP6 heterodimer in biotinylated …. Briefly: BLI. The source holds these as a separate data set.

In the case of “FLAG-Fzd4-3C-sGFP11-PDZ (Sf9) (from UniProt Q61088 42-537) (receptor)”, the percent of the expressed protein GFP dimerized in test [1] turned out to be 50%.

B1: MBP–Norrin (ligand)
chain: DSDPRRCMRHHYVDSISHPLYKCSSKMVLLARCEGHCSQASRSEPLVSFSTVLKQPFRSSCHCCRPQTSKLKALRLRCSGGMRLTATYRYILSCHCEECNS
What is called Kd is the free concentration of one partner at which half of the binding sites on the other are occupied at equilibrium, for simple one-to-one binding. A high value points to a looser complex. As usually defined, the koff is the rate constant with which the complex falls apart. Low values mean slow dissociation, high ones fast dissociation. With B1, the equilibrium dissociation constant (Kd) in test [2] turned out to be 0.00046 µM. In test [3], this molecule had a koff of 0.00034 s⁻¹.

B2: Dikkopf1 (DKK1) (ligand)
chain: TLNSVLNSNAIKNLPPPLGGAAGHPGSAVSAAPGILYPGGNKYQTIDNYQPYPCAEDEECGTDEYCASPTRGGDAGVQICLACRKRRKRCMRHAMCCPGNYCKNGICVSSDQNHFRGEIEETITESFGNDHSTLDGYSRRTTLSSKMYHTKGQEGSVCLRSSDCASGLCCARHFWSKICKPVLKEGQVCTKHRRKGSHGLEIFQRCYCGEGLSCRIQKDHHQASNSSRLHTCQRH
In the case of B2, the values for the dissociation constant (Kd) in test [4] and in test [5] were 0.0056 µM and 0.0167 µM, respectively. For the same molecule, the koff came to 0.012 s⁻¹ in test [6] and 0.0057 s⁻¹ in test [7].

B3: Dishevelled-2 (Dvl2) DEP domain (domain or fragment)
chain: GLSVHMDMASVTKAMAAPESGLEVRDRMWLKITIPNAFLGSDVVDWLYHHVEGFPERREARKYASGLLKAGLIRHTVNKITFSEQCYYVFGDLSG
On to B3, for which the koff in test [8] was 0.0095 s⁻¹; in [13], 0.013 s⁻¹. Besides, the Kd in test [9] came out at 0.26 µM; in [10], 0.198 µM; in [11], 0.22 µM; in test [12], 0.42 µM.
